Data: publication PMC6201861, “Generation and characterization of novel recombinant anti-hERG1 scFv antibodies for cancer molecular imaging” (Oncotarget, 2018)

What was measured:
[1] = target: T1, hERG1 potassium channel expressed on hERG1-transfected HEK 293 cells (Homo sapiens (Human)., UniProt Q12809); test: immunostaining of cells or tissue; indirect immunofluorescence on fixed HEK-hERG1 and HEK-Mock cells; conditions: one partner purified
T1 construct: human ether-a-go-go-related gene-1 (hERG1, Kv 11.1) potassium channel; cell culture details are in the Supplementary Materials; also called HEK-hERG1; HEK 293 hERG1; source: HEK 293, transfected, on cells
T1 sequence (Q12809 whole entry): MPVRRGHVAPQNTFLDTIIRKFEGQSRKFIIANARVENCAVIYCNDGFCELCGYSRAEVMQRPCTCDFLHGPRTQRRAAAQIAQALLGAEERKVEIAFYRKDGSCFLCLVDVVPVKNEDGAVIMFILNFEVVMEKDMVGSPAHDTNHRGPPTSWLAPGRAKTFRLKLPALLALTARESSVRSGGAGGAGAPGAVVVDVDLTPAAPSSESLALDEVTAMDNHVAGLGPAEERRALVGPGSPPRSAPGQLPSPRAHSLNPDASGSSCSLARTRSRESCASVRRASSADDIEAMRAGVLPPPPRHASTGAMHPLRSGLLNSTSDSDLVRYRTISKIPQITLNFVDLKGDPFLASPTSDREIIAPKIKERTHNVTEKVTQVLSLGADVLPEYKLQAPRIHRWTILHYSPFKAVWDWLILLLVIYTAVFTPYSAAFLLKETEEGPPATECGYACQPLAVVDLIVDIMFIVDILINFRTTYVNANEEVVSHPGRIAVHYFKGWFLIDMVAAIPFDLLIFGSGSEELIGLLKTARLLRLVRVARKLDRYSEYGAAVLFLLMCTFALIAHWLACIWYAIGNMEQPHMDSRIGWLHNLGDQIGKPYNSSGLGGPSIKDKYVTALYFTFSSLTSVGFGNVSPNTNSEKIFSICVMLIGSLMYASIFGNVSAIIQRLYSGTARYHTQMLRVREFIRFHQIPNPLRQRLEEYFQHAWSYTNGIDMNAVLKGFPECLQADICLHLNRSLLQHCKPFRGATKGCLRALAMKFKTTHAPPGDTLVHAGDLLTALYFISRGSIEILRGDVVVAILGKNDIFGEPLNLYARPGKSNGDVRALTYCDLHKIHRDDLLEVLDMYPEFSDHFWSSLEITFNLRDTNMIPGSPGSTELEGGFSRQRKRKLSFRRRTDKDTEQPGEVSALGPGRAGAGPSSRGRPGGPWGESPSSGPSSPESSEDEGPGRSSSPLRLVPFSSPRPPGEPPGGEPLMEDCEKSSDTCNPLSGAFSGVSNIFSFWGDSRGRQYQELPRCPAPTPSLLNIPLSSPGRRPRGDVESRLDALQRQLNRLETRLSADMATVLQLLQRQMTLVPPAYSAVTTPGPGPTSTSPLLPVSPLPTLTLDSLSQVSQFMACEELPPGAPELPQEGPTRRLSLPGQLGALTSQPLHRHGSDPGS

S5-Pore peptide [2] = target: T2, S5-Pore peptide (Homo sapiens (Human).); test: ELISA; S5-Pore peptide as coating antigen; 0.1 to 10 ug of scFv (Alexa488 conjugate at 1 ug); revealed with anti-6xHis antibody then anti-mouse IgG-HRP; OD450; conditions: both partners purified
T2 construct: peptide of the extracellular S5-P loop of the human hERG1 (Kv 11.1) potassium channel; also called antigenic peptide; raising peptide
T2 chain: EQPHMDSRIGWLHN

S5-Pore peptide [3] = target: T2, S5-Pore peptide; test: SPR; Biacore T100; S5-Pore peptide amine-coupled to a CM5 chip; scFv flowed at 2.5, 5, 10, 20, 40 ug/ml; contact 120 s, dissociation 600 s, 30 ul/min; 1:1 binding model for scFv-hERG1, two-state reaction model for scFv-hERG1-Cys; conditions: both partners purified
[4] = target: T1, hERG1 potassium channel expressed on …; test: immunostaining of cells or tissue; direct immunofluorescence with the Alexa 488 conjugate on fixed cells (HEK-hERG1, HEK-Mock; PANC-1 in 2D and as spheroids); conditions: one partner purified
[5] = target: T3, hERG1 potassium channel endogenously expressed on cancer cell lines (Homo sapiens (Human)., UniProt Q12809); test: as above; conditions: one partner purified
T3 construct: human ether-a-go-go-related gene-1 (hERG1, Kv 11.1) potassium channel; also called hERG1 on PANC-1 cells; Kv 11.1; source: endogenous, on PANC-1 cells (2D and spheroids); in the viability tests also MDA-MB231, MIAPaCa-2, HCT-116
T3 sequence (Q12809 whole entry): as above

Binder | binding result [1] | fold binding against scFv-hERG1 (ELISA O.D.) (S5-Pore peptide [2]) [fold] | Kd (S5-Pore peptide [3]) [nM] | binding result [4] | binding result [5]
scFv-hERG1-Cys (scFv, V domains shown, numbers count on: Kabat scheme of the VH; as the linker of m1; as the VL of m1; also called mutagenized scFv-hERG1; scFv-Cys; source: P. pastoris GS115 (pPIC9K), purified from culture supernatant (HisTrap HP)) VH: EVQLQQSGPELVKPGASVKISCKTSGYTFTEYTVHWVKQSHGKSLEWIGGINPNGGTTYNQKFKGKATLTIDKSSSSAFMELRSLTSEDSAVYYCATGWGPDYWGQGTTLTVSS VL: not shown | binds | ~2 | 61.8 | – | –
scFv-hERG1-Cys-Alexa488 (scFv, V domains shown, numbers count on: Kabat scheme of the VH; as the linker of m1; as the VL of m1; Same protein as m2, with the fluorophore) VH: EVQLQQSGPELVKPGASVKISCKTSGYTFTEYTVHWVKQSHGKSLEWIGGINPNGGTTYNQKFKGKATLTIDKSSSSAFMELRSLTSEDSAVYYCATGWGPDYWGQGTTLTVSS VL: not shown | – | – | – | binds | binds
